Key:
[1] = tested on: inguinal lymph node cells; assay: Lymph node cell proliferation (stimulation index) to sensitizing antigen β2GPI after mucosal administration; assay type: in vivo, mice; conditions: then immunization with human β2GPI, LDL-RD mice
Procedure: Immunization: Subcutaneous immunization with human β2GPI: Human β2GPI was prepared from human plasma pool as described above. For immunization, human β2GPI was dissolved in PBS and mixed with equal volumes of Freund's incomplete adjuvant. Immunizations were performed by single subcutaneous injection of 10 μg antigen/mouse in 0.1 ml volume. Three days following the last mucosal administration of plaque associated molecules the mice received one immunization, and were sacrificed 10 days post immunization.
Proliferation assays: Mice were exposed to the tested antigen as described for assessment of atherosclerosis, and then immunized (one to three days following the last exposure) subcutaneously with 10 μg β2GPI in 0.1 ml PBS, prepared from purified human β2GPI as described above.
Proliferation was assayed ten days after immunization with the β2GPI as follows: Draining inguinal lymph nodes were prepared by mashing the tissues on 100 mesh screens. Red blood cells were lysed with cold sterile double distilled water (6 ml) for 30 seconds and 2 ml of NaCl 3.5% was added. Incomplete medium was added (10 ml), cells were centrifuged for 7 min at 1,700 rpm, resuspended in RPMI medium and counted in a haemocytometer at 1:20 dilution (10 μl cells+190 μl Trypan Blue). Proliferation was measured by the incorporation of [^3H] Thymidine into DNA in triplicate samples of 100 μl of the packed cells (1×10^6 cells/ml) in a 96 well microtiter plate. […] Thymidine (0.5 μCi/well) was added. After an additional 12-24 hours of incubation the cells were harvested and transferred to glass fiber filters using a cell harvester (Brandel) and counted using β-counter (Lumitron). Proliferation was measured by the incorporation of [^3H] thymidine into DNA during the final 12 h of incubation. The results are expressed as the stimulation index (S.I.): the ratio of the mean radioactivity (cpm) of the antigen to the mean background (cpm) obtained in the absence of the antigen. Standard deviation was always <10% of the mean cpm.
Tolerance induced by mucosal exposure to plaque-associated molecules may be mediated by suppression of specific immune responses to antigenic portions (epitopes) of these plaque associated molecules. Lymphocyte proliferation in response to mucosal (nasal and oral) exposure to human β2GPI was measured in […]. 9 male, 5 week old LDL-RD mice were divided into 3 groups. In group A (n=3) oral tolerance was induced with 100 μg/mouse β2GPI suspended in 0.1 ml PBS, administered by gavage, as described above, every other day for 5 days. In group B (n=3) nasal tolerance was induced with 10 μg/mouse β2GPI suspended in 10 μl PBS, administered intranasally as described above, every other day for 5 days. The mice in group C (n=3) received oral administration of 200 μl PBS every other day for 5 days. Immune reactivity was stimulated in all mice by immunization with human β2GPI as described above in the Materials and Methods section, one day after the last feeding. Ten days after the immunization lymph nodes were collected for assay of proliferation (as expressed in the Stimulation Index SI). All mice were fed normal chow-diet containing 4.5% fat by weight (0.02% cholesterol) and water ad libitum.

[2] = tested on: LDL-RD mice; assay: Aortic sinus lesion area after oral administration, Western diet; assay type: in vivo; conditions: for Aortic sinus lesion (μm^2): End, mean ± S.E
Procedure: Oral Tolerance: For comparison, oral tolerance to plaque-associated molecules was induced by feeding […] of antigen every other day (for a detailed account of induction of oral tolerance, see U.S. patent application Ser. No. 09/806,400 to Shoenfeld et al filed Sep. 30, 1999), in a similar regimen to the nasal tolerance. LDL-RD mice were fed by a nasogastric tube, five doses (every other day) of human or bovine β2GPI in PBS in two different concentrations (500 and 50 μg/dose).
Oral tolerance to β2GPI-derived peptides, alone or in combination was induced by feeding 100 μg of the peptides (prepared in PBS, 0.2 ml), as detailed hereinabove, every other day for a total of 5 doses of 100 μg. One day following the last feeding, all mice were switched from chow-diet to an atherogenic “Western” diet and sacrificed five weeks later.
(§1) Assessment of Atherosclerosis: Quantification of atherosclerotic fatty streak lesions was done by calculating the lesion size in the aortic sinus as previously described (16) and by calculating the lesion size in the aorta. Briefly, after perfusion with saline Tris EDTA, the heart and the aorta were removed from the animals and the peripheral fat cleaned carefully. The upper section of the heart was embedded in OCT medium (10.24% w/w polyvinyl alcohol; 4.26% w/w polyethylene glycol; 85.50% w/w nonreactive ingredients) and frozen. Every other section (10 μm thick) throughout the aortic sinus (400 μm) was taken for analysis. The distal portion of the aortic sinus was recognized by the three valve cusps that are the junctions of the aorta to the heart. […] Lesion areas per section were scored on a grid (17) by an observer counting unidentified, numbered specimens. The aorta was dissected from the heart and surrounding adventitious tissue was removed. Fixation of the aorta and Sudan staining of the vessels were performed as previously described (21).
LDL-receptor deficient (LDL-RD; LDLR −/−) mice created on a C57BL/6 background develop accelerated atherosclerosis when fed a high cholesterol diet, but not when fed a regular chow diet. In order to determine whether mucosal administration of the plaque antigen β2GPI could suppress atherogenic processes, LDL-RD mice were fed low, oral tolerance inducing doses of human and bovine β2GPI, and the assessed for alterations in response to diet.

[3] = tested on: LDL-RD mice; assay: Aortic sinus lesion area after intraperitoneal immunization with incomplete Freund's adjuvant; assay type: in vivo; conditions: End, intraperitoneal with incomplete Freund's adjuvant, head 100 μg, mean ± S.E
Procedure: Intraperitoneal immunization with human β2GPI-derived peptides: human β2GPI-derived peptides were dissolved in PBS and mixed with equal volumes of Freund's incomplete adjuvant. […] One week following the last immunization, the diet was switched from chow to atherogenic “Western” diet for five weeks, and then the mice were sacrificed.
as §1, with “(21). […]” for “(21).”

B1: Human β2 GPI: human beta2-glycoprotein I (SEQ ID NO: 10) purified from serum (protein)
chain: MISPVLILFSSFLCHVAIAGRTCPKPDDLPFSTVVPLKTFYEPGEEITYSCKPGYVSRGGMRKFICPLTGLWPINTLKCTPRVCPFAGILENGAVRYTTFEYPNTISFSCNTGFYLNGADSAKCTEEGKWSPELPVCAPIICPPPSIPTFATLRVYKPSAGNNSLYRDTAVFECLPQHAMFGNDTITCTTHGNWTKLPECREVKCPFPSRPDNGFVNYPAKPTLYYKDKATFGCHDGYSLDGPEEIECTKLGNWSAMPSCKASCKLPVKKATVVYQGERVKIQEKFKNGMLHGDKVSFFCKNKEKKCSYTEDAQCIDGTIEVPKCFKEHSSLAFWKTDASDVKPC
- S.I (Stimulation Index) ([1]; nasal 10 μg/mouse every other day for 5 days): 2.1 ± 0.5
- S.I (Stimulation Index) ([1]; oral 100 μg/mouse every other day for 5 days): 4.4 ± 0.5
- Aortic sinus lesion (μm^2) ([2]; oral 50 μg): 26563 ± 2370 μm^2
- Aortic sinus lesion (μm^2) ([2]; oral 100 μg): 30250 ± 4464 μm^2
- Aortic sinus lesion (μm^2) ([2]; oral 500 μg): 27031 ± 3387 μm^2
- reduction of atherosclerosis as compared with BSA-fed controls ([2]; oral 50 μg/dose): 45%
- reduction of atherosclerosis (aortic sinus lesion size) as compared with BSA- and PBS-fed controls ([2]; oral 100 μg/dose, 5 doses, Western diet 5 weeks): 44%
- reduction of atherosclerosis as compared with BSA-fed controls ([2]; oral 500 μg/dose): 44%
- Aortic sinus lesion (μm^2) [3]: 36782 ± 5962 μm^2

Source: patent publication US20090068207A1, “Compositions Containing Beta 2-Glycoprotein I-Derived Peptides for the Prevention and/or Treatment of Vascular Disease” (Vascular Biogenics Ltd., priority 2005, published 2009)
